In patent EP3228631A2 (TLA Targeted Immunotherapies AB, dated 2017):
Each block holds one molecule with its values, some of them ahead of it.

Assays:
[1] = biological target: hCXCR1 (human) (UniProt P25024); assay: cell-based or functional assay
[2] = biological target: CCR5 (human) (UniProt P51681); assay: blood passed through the biotinylated RANTES coupled matrix column; flow cytometry for CCR1, 3 or 5-expressing cells; one healthy donor
[3] = biological target: CCR3 (human) (UniProt P51677); assay: as above
CCR3 (human), sequence (P51677 whole entry): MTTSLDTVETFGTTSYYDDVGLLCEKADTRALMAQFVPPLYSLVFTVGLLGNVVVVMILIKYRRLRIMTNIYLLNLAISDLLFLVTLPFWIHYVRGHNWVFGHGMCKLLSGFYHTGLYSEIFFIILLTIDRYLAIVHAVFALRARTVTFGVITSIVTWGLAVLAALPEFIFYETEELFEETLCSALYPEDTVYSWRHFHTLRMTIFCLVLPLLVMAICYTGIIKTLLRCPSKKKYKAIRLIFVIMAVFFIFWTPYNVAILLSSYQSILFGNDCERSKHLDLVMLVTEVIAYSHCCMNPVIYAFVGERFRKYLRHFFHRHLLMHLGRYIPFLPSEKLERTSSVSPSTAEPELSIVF

[4] = biological target: T1, CCR1 (human) (UniProt P32246); assay: as above
T1 sequence (looked up): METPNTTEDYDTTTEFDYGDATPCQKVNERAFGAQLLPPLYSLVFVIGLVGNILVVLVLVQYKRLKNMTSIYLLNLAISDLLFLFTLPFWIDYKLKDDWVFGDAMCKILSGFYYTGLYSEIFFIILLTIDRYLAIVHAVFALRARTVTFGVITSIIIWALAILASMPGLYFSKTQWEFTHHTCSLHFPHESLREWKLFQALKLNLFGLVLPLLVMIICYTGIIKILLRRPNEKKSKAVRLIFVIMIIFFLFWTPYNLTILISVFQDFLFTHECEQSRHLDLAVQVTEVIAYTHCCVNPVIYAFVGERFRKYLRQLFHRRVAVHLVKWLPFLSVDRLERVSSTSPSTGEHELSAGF

[5] = biological target: CCR5 (human) (UniProt P51681); assay: cell-based or functional assay
[6] = biological target: CCR3 (human) (UniProt P51677); assay: blood passed through the eotaxin coupled matrix (MACS beads, magnetic separator); flow cytometry before and after; one healthy donor
[7] = biological target: T2, CCR7 (human, UniProt P32248 25-378); assay: cell-based or functional assay
T2 sequence (looked up): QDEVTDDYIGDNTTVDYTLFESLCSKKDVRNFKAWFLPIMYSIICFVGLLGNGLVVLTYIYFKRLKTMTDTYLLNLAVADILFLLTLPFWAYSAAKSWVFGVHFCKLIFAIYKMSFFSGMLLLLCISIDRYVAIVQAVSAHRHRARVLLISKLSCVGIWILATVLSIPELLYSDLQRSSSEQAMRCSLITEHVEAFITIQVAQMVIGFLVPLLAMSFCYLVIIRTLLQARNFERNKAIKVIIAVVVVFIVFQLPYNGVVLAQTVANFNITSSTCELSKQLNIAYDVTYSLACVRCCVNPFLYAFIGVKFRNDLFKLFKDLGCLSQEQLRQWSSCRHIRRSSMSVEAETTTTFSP

[8] = biological target: CCR3 (human) (UniProt P51677); assay: cell-based or functional assay
[9] = biological target: T3, hCCR2b (human, UniProt P41597 1-374); assay: cell-based or functional assay
T3 chain: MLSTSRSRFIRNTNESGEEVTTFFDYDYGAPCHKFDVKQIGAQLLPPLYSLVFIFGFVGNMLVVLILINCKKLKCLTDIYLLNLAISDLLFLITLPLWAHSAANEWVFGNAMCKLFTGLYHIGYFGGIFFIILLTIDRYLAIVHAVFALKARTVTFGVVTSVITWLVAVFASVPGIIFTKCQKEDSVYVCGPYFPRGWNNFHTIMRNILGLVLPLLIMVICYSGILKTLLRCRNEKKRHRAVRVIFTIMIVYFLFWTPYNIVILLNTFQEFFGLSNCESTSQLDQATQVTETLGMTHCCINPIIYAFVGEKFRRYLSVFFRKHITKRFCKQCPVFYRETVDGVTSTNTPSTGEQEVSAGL

CCR5 (human), sequence (P51681 whole entry): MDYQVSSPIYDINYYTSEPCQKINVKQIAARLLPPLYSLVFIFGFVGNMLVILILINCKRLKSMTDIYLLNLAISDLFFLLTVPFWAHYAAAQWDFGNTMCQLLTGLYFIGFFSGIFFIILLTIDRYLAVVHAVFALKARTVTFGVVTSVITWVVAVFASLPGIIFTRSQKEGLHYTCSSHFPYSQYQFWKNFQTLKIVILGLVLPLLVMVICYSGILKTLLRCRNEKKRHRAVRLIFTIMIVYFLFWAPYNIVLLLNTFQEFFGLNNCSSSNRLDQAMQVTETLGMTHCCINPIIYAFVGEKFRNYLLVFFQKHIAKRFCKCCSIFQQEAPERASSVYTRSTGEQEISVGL
hCXCR1 (human), sequence (P25024 whole entry): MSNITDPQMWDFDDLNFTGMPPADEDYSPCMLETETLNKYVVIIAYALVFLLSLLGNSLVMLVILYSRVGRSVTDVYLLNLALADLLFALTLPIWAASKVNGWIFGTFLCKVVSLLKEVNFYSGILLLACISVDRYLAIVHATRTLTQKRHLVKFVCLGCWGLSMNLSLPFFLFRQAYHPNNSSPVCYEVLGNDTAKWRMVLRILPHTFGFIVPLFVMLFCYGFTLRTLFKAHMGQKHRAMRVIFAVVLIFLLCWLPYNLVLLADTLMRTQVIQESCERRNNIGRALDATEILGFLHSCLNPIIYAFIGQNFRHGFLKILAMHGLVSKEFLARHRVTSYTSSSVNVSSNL

Molecule: biotinRANTES (RANTES derivatised at the ε-amino side chain functionality of Lys(67) with Biotin) (from UniProt P13501 24-91) (ligand)
reduction of chemokine receptor-expressing cells by the column [2]: 20% | reduction of chemokine receptor-expressing cells by the column [3]: 20% | reduction of chemokine receptor-expressing cells by the column [4]: 20% | EC50, agonist activity, Aequorin assay [5]: 0.5 nM

Molecule: biotinylated eotaxin (from UniProt P51671 24-97) (ligand)
reduction of CCR3-expressing cells by the column [6]: 25%

Molecule: recombinant native eotaxin (from UniProt P51671 24-97) (ligand)
EC50, agonist, Aequorin assay [8]: 10.7 nM

B1: recombinant native MCP-2 (ligand, human, UniProt P80075 24-99, looked up)
chain: QPDSVSIPITCCFNVINRKIPIQRLESYTRITNIQCPKEAVIFKTKRGKEVCADPKERWVRDSMKHLDQIFQNLKP
EC50, partial agonist, Aequorin assay [9]: 23.5 nM

B2: biotinMIP-3β (MIP-3β derivatised at the ε-amino side chain functionality of Lys(78) with Biotin) (ligand)
chain: GTNDAEDCCLSVTQKPIPGYIVRNFHYLLIKDGCRVPAVVFTTLRGRQLCAPPDQPWVERIIQRLQRTSAKMKRRSSX
modifications: X78 = K(Biotin) (additional C-terminal lysine, biotinylated); C-terminal amide (Rink Amide resin)
EC50, agonist activity, Aequorin assay [7]: 11 nM

The next lines start with the values.

EC50, agonist activity, Aequorin assay [1]: 6.1 nM
Molecule: biotinIL-8 (6-78) (IL-8 (6-78) derivatised at the ε-amino side chain functionality of Lys(78) with PEG-Biotin) (from UniProt P10145 28-99) (ligand)

EC50, Aequorin assay [1]: 4.2 nM
Molecule: recombinant native IL-8 (from UniProt P10145 28-99) (ligand)

EC50, Aequorin assay [7]: 1.6 nM
Molecule: recombinant native MIP-3β (from UniProt Q99731 22-98) (ligand)
